Columns and labels:
[1] = molecular target: T1, recombinant CaRF (Figs 5 and 6) (UniProt Q8VHI4 1-689); assay: EMSA; EMSA: 2 uL TNT or purified CaRF with 50 fmol 32P probe, 6% non-denaturing gel; competitors 50-150-fold excess, 30 min pre-incubation; buffer, pH and temperature not stated (cited ref 14); details: protein: recombinant; label: 32P when probe; blunt
T1 sequence: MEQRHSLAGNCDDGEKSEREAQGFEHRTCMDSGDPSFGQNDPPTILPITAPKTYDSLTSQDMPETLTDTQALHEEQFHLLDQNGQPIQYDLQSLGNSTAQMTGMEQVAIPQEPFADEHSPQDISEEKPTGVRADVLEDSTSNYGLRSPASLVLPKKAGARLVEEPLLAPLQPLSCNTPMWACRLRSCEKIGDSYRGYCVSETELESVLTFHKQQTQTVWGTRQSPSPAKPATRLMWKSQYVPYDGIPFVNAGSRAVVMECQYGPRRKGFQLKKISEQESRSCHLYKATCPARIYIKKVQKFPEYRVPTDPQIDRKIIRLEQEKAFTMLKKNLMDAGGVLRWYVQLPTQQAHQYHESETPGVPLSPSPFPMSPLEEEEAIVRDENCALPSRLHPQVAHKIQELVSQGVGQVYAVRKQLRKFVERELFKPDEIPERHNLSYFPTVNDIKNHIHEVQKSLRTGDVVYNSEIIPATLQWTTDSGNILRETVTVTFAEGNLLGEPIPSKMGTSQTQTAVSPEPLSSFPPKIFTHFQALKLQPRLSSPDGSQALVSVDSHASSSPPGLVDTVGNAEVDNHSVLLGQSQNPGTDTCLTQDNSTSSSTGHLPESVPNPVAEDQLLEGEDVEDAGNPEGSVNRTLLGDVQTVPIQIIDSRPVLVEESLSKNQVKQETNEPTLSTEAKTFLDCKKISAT

CaRF (TNT) [2] = molecular target: T2, CaRF (TNT) (Homo sapiens, UniProt Q8N187 1-725); assay: as above; details: protein: ivt; tags: N-terminal FLAG (DYKDDDDK); label: 32P when probe; blunt
T2 sequence: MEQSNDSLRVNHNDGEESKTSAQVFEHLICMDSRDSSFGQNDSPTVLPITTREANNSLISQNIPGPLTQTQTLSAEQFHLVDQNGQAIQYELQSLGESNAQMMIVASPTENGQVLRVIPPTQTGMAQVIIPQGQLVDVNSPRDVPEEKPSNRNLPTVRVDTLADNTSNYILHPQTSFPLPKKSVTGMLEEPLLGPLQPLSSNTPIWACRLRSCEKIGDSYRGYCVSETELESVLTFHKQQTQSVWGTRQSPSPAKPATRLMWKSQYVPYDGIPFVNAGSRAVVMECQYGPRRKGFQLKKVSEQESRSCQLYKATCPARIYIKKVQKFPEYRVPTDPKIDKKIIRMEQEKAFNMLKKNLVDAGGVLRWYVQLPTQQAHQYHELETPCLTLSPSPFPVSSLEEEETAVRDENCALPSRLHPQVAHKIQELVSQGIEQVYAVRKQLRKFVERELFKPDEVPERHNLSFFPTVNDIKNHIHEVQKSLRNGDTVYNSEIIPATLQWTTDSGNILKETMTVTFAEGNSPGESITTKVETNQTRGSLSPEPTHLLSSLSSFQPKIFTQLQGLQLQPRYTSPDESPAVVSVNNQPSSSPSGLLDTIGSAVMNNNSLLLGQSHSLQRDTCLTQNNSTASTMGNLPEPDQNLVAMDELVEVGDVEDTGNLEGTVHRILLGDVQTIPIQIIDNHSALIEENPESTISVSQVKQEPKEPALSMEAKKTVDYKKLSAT

CaRF (E. coli) [3] = molecular target: T3, CaRF (E. coli) (Mus musculus (Methods); human per Fig 2 …, UniProt Q8VHI4 1-689); assay: as above; details: protein: recombinant; label: 32P when probe; blunt
T3 sequence: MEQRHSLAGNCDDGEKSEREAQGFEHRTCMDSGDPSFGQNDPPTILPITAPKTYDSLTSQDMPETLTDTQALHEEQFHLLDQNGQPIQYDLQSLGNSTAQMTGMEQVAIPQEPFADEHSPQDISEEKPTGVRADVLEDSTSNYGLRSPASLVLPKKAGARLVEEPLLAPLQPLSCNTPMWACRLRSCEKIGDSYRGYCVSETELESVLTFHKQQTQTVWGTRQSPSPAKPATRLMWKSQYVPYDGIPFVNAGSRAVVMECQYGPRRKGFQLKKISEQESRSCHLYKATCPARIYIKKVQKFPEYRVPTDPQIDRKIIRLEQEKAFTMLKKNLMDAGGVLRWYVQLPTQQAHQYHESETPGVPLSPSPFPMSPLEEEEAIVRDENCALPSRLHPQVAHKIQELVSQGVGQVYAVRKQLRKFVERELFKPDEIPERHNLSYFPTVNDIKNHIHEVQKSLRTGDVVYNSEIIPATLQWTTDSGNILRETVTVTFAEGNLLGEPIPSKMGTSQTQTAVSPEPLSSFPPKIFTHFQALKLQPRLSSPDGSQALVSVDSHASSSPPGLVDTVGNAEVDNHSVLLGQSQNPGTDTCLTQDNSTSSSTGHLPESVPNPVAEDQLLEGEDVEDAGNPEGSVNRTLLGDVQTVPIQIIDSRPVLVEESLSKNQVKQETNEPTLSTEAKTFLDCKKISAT

[4] = molecular target: T1, recombinant CaRF (Figs 5 and 6); assay: competition; camCaRE probe, 50-100-fold excess; EMSA: 2 uL TNT or purified CaRF with 50 fmol 32P probe, 6% non-denaturing gel; competitors 50-150-fold excess, 30 min pre-incubation; buffer, pH and temperature not stated (cited ref 14); details: protein: recombinant; blunt
CaRF (TNT) [5] = molecular target: T2, CaRF (TNT); assay: competition; CaRE1 probe, 50-fold excess; EMSA: 2 uL TNT or purified CaRF with 50 fmol 32P probe, 6% non-denaturing gel; competitors 50-150-fold excess, 30 min pre-incubation; buffer, pH and temperature not stated (cited ref 14); details: protein: ivt; tags: N-terminal FLAG (DYKDDDDK); blunt
CaRF (E. coli) [6] = molecular target: T3, CaRF (E. coli); assay: as above; details: protein: recombinant; blunt
[7] = molecular target: T1, recombinant CaRF (Figs 5 and 6); assay: competition; cCaRE probe, 100-fold excess; higher affinity than CaRF1; EMSA: 2 uL TNT or purified CaRF with 50 fmol 32P probe, 6% non-denaturing gel; competitors 50-150-fold excess, 30 min pre-incubation; buffer, pH and temperature not stated (cited ref 14); details: protein: recombinant; blunt

B1: camCaRE (dsDNA)
DNA 1: TCAAAGCGAGGCAGA
DNA 2: TCTGCCTCGCTTTGA
B1: binds [1].

B2: CaRE1 (dsDNA)
DNA 1: GAGTGTCTATTTCGAGGCAGAGGAGG
DNA 2: CCTCCTCTGCCTCGAAATAGACACTC
B2: binds (CaRF (TNT) [2]); binds (CaRF (E. coli) [3]).

B3: mCaRE1 (mCaRE) (dsDNA)
DNA 1: GAGTGTCTTCCGCCAGGCAGAGGAGG
DNA 2: CCTCCTCTGCCTGGCGGAAGACACTC
B3: no binding [4]; no binding (CaRF (TNT) [5]); no binding (CaRF (E. coli) [6]).

B4: CaRF2 (dsDNA)
DNA 1: TGAGTAGTCTCGTTTTGAATTTTCTCC
DNA 2: GGAGAAAATTCAAAACGAGACTACTCA
B4: binds [7].
